Results published in US9068161B2, “Laccases and uses thereof” (DEINOVE, priority 2010, dated 2015).

What was measured:
[1] = Temperature and pH optimum of laccase activity; type: biochemical; settings: 2,6 DMP as substrate
Experimental: (§1) Standard assays for laccase activity were performed at the temperature range from 30° C. to 90° C. by measurement of enzymatic oxidation of substrates at appropriate wavelength. The reaction was performed in presence of a substrate concentration range, 0.05 mg/mL of purified enzyme and 1 mM prepared in 0.1M citrate-phosphate buffer pH8.
In another series of experiments, the laccase activity according to the invention, was also tested in different conditions of temperature and pH using various substrates.

[2] = Laccase assay, overall conclusion on recombinant enzyme; type: biochemical; settings: in the tested conditions
Experimental: as §1
Standard assays were performed using the following substrates: 2,6 DMP, 4-methyl DMP, synapic acid, syringic acid, guaiacol, ABTS, paraphenylenediamine and ferulic acid.
Reagent A (185 μl) was mixed with Reagent B (10 μl). The mixture was equilibrated to 45° C. or 60° C. The absorbance at 470 nm was monitored until constant, using a suitably thermoregulated spectrophotometer. Then Reagent C (5 μl) was added and the increase in A470 nm was recorded for 30 minutes. The ΔA470 nm/minute was obtained using the maximum linear rate for the Test, Control and Blank, Blank being mixture without enzyme and Control being mixture with laccase from Trametes versicolor (T. versicolor, commercial enzyme) replacing Laccase enzyme solution (Reagent C).
Other substrates, different from 2,6 DMP such as 4-methyl DMP, synapic acid, syringic acid, guaiacol, ABTS, paraphenylenediamine and ferulic acid have also been tested at optimal concentration for each substrate (as shown in Tables 1A and 1B).

[3] = substrate: COc1cccc(OC)c1O; assay: Laccase assay, Laccase 2 activity (oxidation of substrates, spectrophotometric); type: biochemical, Deinococcus cellulolysiticus DRH46; settings: other: 60° C., pH 8, 0.1M citrate-phosphate buffer, 0.05 mg/mL purified enzyme
Text: (§2) Two enzymes having laccase activity have been characterized from Deinococcus cellulolysiticus DRH46 (namely laccase 1, laccase 2), and one enzyme having laccase activity has been characterized from Deinococcus maricopensis DSM 21211 (i.e., laccase 3). The amino acid sequences of laccase 1, laccase 2 and laccase 3 are represented in SEQ ID NO: 2, 4 and 6, respectively.
(§3) As mentioned in Example 1, nucleic acids encoding the laccase 1, 2 and 3 enzymes comprising the amino acid sequence of SEQ ID NO: 2, 4 or 6 respectively, were cloned into the pETDEST42 vector according to conventional recombinant techniques. In each vector, the cloned nucleic acid was cloned in frame with a 6(His) tag (SEQ ID NO: 7), to facilitate purification of the recombinant protein.
(§4) E. coli cells harboring the recombinant nucleic acid are prepared and grown in 4 liters of LB medium. Induction of the enzyme production is performed overnight in the presence of 1 mM IPTG and 2 mM of […]. […]
(§5) The assay is performed at T=45° C. and 60° C., pH=8. The absorbance was measured at A470 nm and the measure was carried out using Continuous Spectrophotometric Rate Determination. […]
(§6) Reagent A (185 μl) was mixed with Reagent B (10 μl). […] The absorbance at 470 nm was monitored until constant, using a suitably thermoregulated spectrophotometer. Then Reagent C (5 μl) was added and the increase in A470 nm was recorded for 30 minutes. […]

[4] = substrate: COc1ccccc1O; assay: as above; type: biochemical, Deinococcus cellulolysiticus DRH46; settings: other: 60° C., pH 8, 0.1M citrate-phosphate buffer, 0.05 mg/mL purified enzyme
Text: as §2, §3, §4, §5, §6

[5] = substrate: COc1cccc(OC)c1O; assay: Laccase assay, Laccase 1 activity (oxidation of substrates, spectrophotometric); type: biochemical, Deinococcus cellulolysiticus DRH46; settings: other: 60° C., pH 8, 0.1M citrate-phosphate buffer, 0.05 mg/mL purified enzyme
Text: as §2, §3, §4, §5, §6

[6] = substrate: COc1ccccc1O; assay: as above; type: biochemical, Deinococcus cellulolysiticus DRH46; settings: other: 60° C., pH 8, 0.1M citrate-phosphate buffer, 0.05 mg/mL purified enzyme
Text: as §2, §3, §4, §5, §6

Molecule | Optimal pH [1] | Optimal temperature [1] | Laccase activity of the recombinant enzyme [2] | Km [3] | Km [4] | Km [5] | Km [6]
Laccase 1: enzyme having laccase activity from Deinococcus cellulolysiticus DRH46, amino acid sequence SEQ ID NO: 2, recombinant with 6(His) tag (protein, 6xHis tag; Laccase 1 derived from Deinococcus cellulolyticus DRH46) MKQRLTAAALLTALLSSCAMKNPDVISYQDPEPLAGQRSGKAAEFTLTAQKSRLDLAGQSVEALTYNGTFPGPLLTLKAGEDVRITLKNNLSEPTNLHLHGLPLSPEVDDPFVVVPPGGSHTYAFQVPEEVHGTFWYHTHTHGASAAQLFSGLAGPLLVEAAKPNNPIEHMETHTVVFKDLPGAQHADDGVLMNGRENTLLVNGLVSPTLKTENSWVQLRLINASNARYLRLKLDDGLLQVVARDGIDLPGMERAQELLLTPGERADVLVSLQDHQNLKLQNLPYDRGVHSMGSHSGHTESKTAVVLTLQGPQKPGASVPRVETAPPPFLQLQGNEKVRKVILQETMQPVKFFINGRSFDMNRVDFHVSEGSTEIWELQNTTEMDHPFHLHTFPMQLIRIGGKEVPPVWKDTVNIPKNSTVTVAVHFKGFTGKTVFHCHIAEHEEAGMMGLLQVHPSGTALPASLEPIEPTVGPGEDAQHGH | 8 | 90 °C | fully active | – | – | – | –
Deinococcus cellulolysiticus DRH46 laccase 2, recombinant, SEQ ID NO: 4 (Deinococcus cellulosilyticus NBRC 106333 = KACC 11606) (protein) PKGSPMTEYHNPAEVQASRTEKGSTFTLTAAETSITLDGKEVKAQLFNQSFPGPQLTLQAGEQVNLTLKNDLREPTNLHLHGLTLPAGVDDPFLQVQPGESHTYSFTVPQGLHGTFWYHTHTHGHLGTQLFQGLAGPLIVEDPTFDSHIQGMETHTVVLKDLPVEVQDSDGTRMNGREGKLLVNGLSSPTLKTESSWVRLRLINASNARYDLLKLSGSAFLHVIAKDGIDLPKTEQVKELLLTPGERADVLISVQDQQDLRLENHPYDRGVHEMDGGHQGHTPSTPEVLLTLQGKKGSVSASVPQPALQPRPFLKVTGNEAIRKVVLQETMQPVKFFINGRTFDMNRVDFHVSEGTTEIWEVENQTEMDHPFHLHTFPVQVLSVNGQEVPPVWKDTVNVPAKAKVQVAVKFEGFTGKTVFHCHIAEHEEEGMMGVLQVHPAGEALPASLTPTLPPAAASEDMPDMPGMDHSGH | – | – | – | 992 ± 141 µM | 5074 ± 343 µM | – | –
Deinococcus cellulolysiticus DRH46 laccase 1, recombinant, SEQ ID NO: 2 (Deinococcus cellulosilyticus NBRC 106333 = KACC 11606) (protein) NPDVISYQDPEPLAGQRSGKAAEFTLTAQKSRLDLAGQSVEALTYNGTFPGPLLTLKAGEDVRITLKNNLSEPTNLHLHGLPLSPEVDDPFVVVPPGGSHTYAFQVPEEVHGTFWYHTHTHGASAAQLFSGLAGPLLVEAAKPNNPIEHMETHTVVFKDLPGAQHADDGVLMNGRENTLLVNGLVSPTLKTENSWVQLRLINASNARYLRLKLDDGLLQVVARDGIDLPGMERAQELLLTPGERADVLVSLQDHQNLKLQNLPYDRGVHSMGSHSGHTESKTAVVLTLQGPQKPGASVPRVETAPPPFLQLQGNEKVRKVILQETMQPVKFFINGRSFDMNRVDFHVSEGSTEIWELQNTTEMDHPFHLHTFPMQLIRIGGKEVPPVWKDTVNIPKNSTVTVAVHFKGFTGKTVFHCHIAEHEEAGMMGLLQVHPSGTALPASLEPIEPTVGPGEDAQHGH | – | – | – | – | – | 798 ± 35 µM | 3046 ± 183 µM
Laccase 2: enzyme having laccase activity from Deinococcus cellulolysiticus DRH46, amino acid sequence SEQ ID NO: 4, recombinant with 6(His) tag (protein, 6xHis tag; Laccase 2 derived from Deinococcus cellulolyticus DRH46) MIRTLTSLTLLTVALTACAPKGSPMTEYHNPAEVQASRTEKGSTFTLTAAETSITLDGKEVKAQLFNQSFPGPQLTLQAGEQVNLTLKNDLREPTNLHLHGLTLPAGVDDPFLQVQPGESHTYSFTVPQGLHGTFWYHTHTHGHLGTQLFQGLAGPLIVEDPTFDSHIQGMETHTVVLKDLPVEVQDSDGTRMNGREGKLLVNGLSSPTLKTESSWVRLRLINASNARYDLLKLSGSAFLHVIAKDGIDLPKTEQVKELLLTPGERADVLISVQDQQDLRLENHPYDRGVHEMDGGHQGHTPSTPEVLLTLQGKKGSVSASVPQPALQPRPFLKVTGNEAIRKVVLQETMQPVKFFINGRTFDMNRVDFHVSEGTTEIWEVENQTEMDHPFHLHTFPVQVLSVNGQEVPPVWKDTVNVPAKAKVQVAVKFEGFTGKTVFHCHIAEHEEEGMMGVLQVHPAGEALPASLTPTLPPAAASEDMPDMPGMDHSGH | 8 | 70 °C | fully active | – | – | – | –
